Experimental data taken from patent US20150252117A1 (Genentech, published 2015).
Residue numbers refer to the chain shown, from its start. Numbers in names are those of the source.

How the values were obtained:
[1] = target: T1, Murine Jag1-DSL-EGF1-4 (mouse, UniProt Q9QXX0 34-377); assay: ELISA (screening, FIG. 8)
T1 construct: also called murine Jagged1; mouse Jagged1

[2] = target: T2, Human Jag2-DSL-EGF1-4 (human, UniProt Q9Y219 24-388); assay: ELISA on human Jagged2 (Jag-2 bars), OD450 nm
T2 construct: also called human Jagged2; hJag2
T2 sequence: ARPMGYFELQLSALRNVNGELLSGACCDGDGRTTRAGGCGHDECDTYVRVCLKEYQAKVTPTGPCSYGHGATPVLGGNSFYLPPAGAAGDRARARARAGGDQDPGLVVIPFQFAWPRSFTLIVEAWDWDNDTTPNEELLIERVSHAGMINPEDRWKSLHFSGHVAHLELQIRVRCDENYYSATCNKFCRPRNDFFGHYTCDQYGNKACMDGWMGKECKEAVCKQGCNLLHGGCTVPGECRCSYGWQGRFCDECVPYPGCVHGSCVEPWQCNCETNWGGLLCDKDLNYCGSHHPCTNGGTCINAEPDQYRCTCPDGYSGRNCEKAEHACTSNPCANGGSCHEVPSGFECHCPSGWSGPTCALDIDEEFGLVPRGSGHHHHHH

[3] = target: T3, Murine Jag2-DSL-EGF1-4 (mouse, UniProt Q9QYE5 27-388); assay: SPR (BIAcore-3000), IgG captured, Jag DSL-EGF1-4 as analyte
T3 construct: also called murine Jagged2; Mouse Jag2
T3 sequence: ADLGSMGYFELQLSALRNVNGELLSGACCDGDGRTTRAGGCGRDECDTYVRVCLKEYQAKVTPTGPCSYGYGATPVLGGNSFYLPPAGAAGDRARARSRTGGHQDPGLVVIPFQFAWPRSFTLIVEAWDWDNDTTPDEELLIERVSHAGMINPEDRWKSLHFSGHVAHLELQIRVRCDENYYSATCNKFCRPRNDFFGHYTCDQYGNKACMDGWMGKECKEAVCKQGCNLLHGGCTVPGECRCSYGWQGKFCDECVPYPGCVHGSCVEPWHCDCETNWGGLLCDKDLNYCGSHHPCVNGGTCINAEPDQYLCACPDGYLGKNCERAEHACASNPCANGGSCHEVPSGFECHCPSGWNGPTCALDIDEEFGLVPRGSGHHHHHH

[4] = target: T4, Human Jag1-DSL-EGF1-4 (human, UniProt P78504 34-377); assay: SPR (BIAcore-3000), IgG captured, Jag DSL-EGF1-4 as analyte, 25 C
T4 construct: Secreted protein from BEVS cells; also called human Jagged1; hJag1; not shown: TEV protease cleavage site and 6-His tag at the C-terminus

[5] = target: T4, Human Jag1-DSL-EGF1-4; assay: SPR (BIAcore T200), IgG1 captured, ligand as analyte, 25 C
[6] = target: T1, Murine Jag1-DSL-EGF1-4; assay: as above
[7] = target: T2, Human Jag2-DSL-EGF1-4; assay: ELISA, Notch ligand coated at 1 ug/ml, serial 3-fold dilutions of IgG, anti-human Fab-peroxidase, A630 [left panel, A-2]
[8] = target: T3, Murine Jag2-DSL-EGF1-4; assay: as above
[9] = target: T5, human Delta-like 1 (DSL-EGF1-4 fragment) (human, UniProt O00548 18-368, limits assumed); assay: as above
T5 construct: domain: DSL-EGF1-4; Recombinant purified Notch ligand; also called human DLL1; hDLL1
T5 sequence (looked up): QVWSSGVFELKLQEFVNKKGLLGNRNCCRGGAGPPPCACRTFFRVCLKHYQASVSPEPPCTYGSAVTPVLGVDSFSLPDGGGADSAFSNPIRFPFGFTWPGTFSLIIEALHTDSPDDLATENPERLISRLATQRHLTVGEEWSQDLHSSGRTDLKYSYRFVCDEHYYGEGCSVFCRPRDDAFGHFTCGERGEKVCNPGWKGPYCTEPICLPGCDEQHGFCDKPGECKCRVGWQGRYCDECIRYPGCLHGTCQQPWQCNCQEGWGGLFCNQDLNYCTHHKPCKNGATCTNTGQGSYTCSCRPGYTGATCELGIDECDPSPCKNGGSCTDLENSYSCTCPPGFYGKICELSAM

[10] = target: T6, murine Delta-like 1 (DSL-EGF1-4 fragment) (mouse, UniProt Q61483 18-367, limits assumed); assay: as above
T6 construct: domain: DSL-EGF1-4; Recombinant purified Notch ligand; also called murine DLL1; mouse DLL1

[11] = target: T7, human Delta-like 4 (DSL-EGF1-4 fragment) (human, UniProt Q9NR61 27-365, limits assumed); assay: as above
T7 construct: domain: DSL-EGF1-4; Recombinant purified Notch ligand; also called human DLL4; hDLL4

[12] = target: T8, murine Delta-like 4 (DSL-EGF1-4 fragment) (mouse, UniProt Q9JI71 27-366, limits assumed); assay: as above
T8 construct: domain: DSL-EGF1-4; Recombinant purified Notch ligand; also called murine DLL4; mouse DLL4

[13] = target: T4, Human Jag1-DSL-EGF1-4; assay: ELISA on human Jagged1 (Jag-1 bars), OD450 nm
[14] = target: T1, Murine Jag1-DSL-EGF1-4; assay: SPR (BIAcore-3000), IgG captured, Jag DSL-EGF1-4 as analyte
[15] = target: T2, Human Jag2-DSL-EGF1-4; assay: SPR (BIAcore-3000), IgG captured, Jag DSL-EGF1-4 as analyte, 25 C
[16] = target: T3, Murine Jag2-DSL-EGF1-4; assay: as above
[17] = target: T7, human Delta-like 4 (DSL-EGF1-4 fragment); assay: SPR (BIAcore T200), IgG1 captured, ligand as analyte
[18] = target: T8, murine Delta-like 4 (DSL-EGF1-4 …); assay: as above
[19] = target: T2, Human Jag2-DSL-EGF1-4; assay: SPR (BIAcore T200), IgG1 captured, ligand as analyte, 25 C
[20] = target: T3, Murine Jag2-DSL-EGF1-4; assay: as above
[21] = target: T5, human Delta-like 1 (DSL-EGF1-4 fragment); assay: SPR (BIAcore T200), IgG1 captured, ligand as analyte; value marked * (asterisk not explained)
[22] = target: T6, murine Delta-like 1 (DSL-EGF1-4 …); assay: as above
[23] = target: T9, purified Jag1 extracellular domain protein fragment (Homo sapiens (Human), UniProt P78504 34-377); assay: BIAcore (SPR), purified Jag1 extracellular domain fragment
T9 construct: not shown: C-terminal TEV protease cleavage site and 6-His tag of the human Jag1-DSL-EGF1-4 antigen

B1: Antibody A (antibody, human IgG1, V domains shown)
VH: EVQLVESGGGLVQPGGSLRLSCAASGFTFSNYGIHWVRQAPGKGLEWVGWITPDGGYTDYADSVKGRFTISADTSKNTAYLQMNSLRAEDTAVYYCARAGSWFAYWGQGTLVTVSS
VL: DIQMTQSPSSLSASVGDRVTITCRASQDVSTAVAWYQQKPGKAPKLLIYSASFLYSGVPSRFSGSGSGTDFTLTISSLQPEDFATYYCQQSYTTPPTFGQGTKVEIK
notes: Only the variable domains are tied to the tested antibody; also called parent antibody A; anti-Jagged1 antibody A
Question: Does B1 bind [1]?
Answer: Result: binds

Question: Does B1 bind [2]?
Answer: Result: no binding

Question: Does B1 bind [3]?
Answer: Result: no binding (tested: 0.5 µM)

Question: What about the Kd [4] of the same binder?
Answer: The Kd was 94 nM.

Question: What about the koff [4] of the same binder?
Answer: The koff was 0.0021 s⁻¹.

Question: What about the kon [4] of the same binder?
Answer: The kon was 23000 M⁻¹ s⁻¹.

B2: Antibody A-2 (antibody, human IgG1, V domains shown)
VH: B1 VH with P53G, D54N, T58S
VL: B1 VL
notes: also called anti-Jagged1 antibody A-2
Question: Which results are given for B2?
Answer: Kd [5]: 0.382 nM; koff [5]: 9.23e-05 s⁻¹; kon [5]: 242000 M⁻¹ s⁻¹; Kd [6]: 0.15 nM; koff [6]: 5.77e-05 s⁻¹; kon [6]: 385000 M⁻¹ s⁻¹; Kd [4]: 0.3 nM; koff [4]: 7.1e-05 s⁻¹; kon [4]: 230000 M⁻¹ s⁻¹; binding result [7]: no binding; binding result [8]: no binding; binding result [9]: no binding; binding result [10]: no binding; binding result [11]: no binding; binding result [12]: no binding

B3: Antibody B (antibody, V domains shown)
VH: EVQLVESGGGLVQPGGSLRLSCAASGFTFTSYDIHWVRQAPGKGLEWVGGISPADGDTDYANSVKGRFTISADTSKNTAYLQMNSLRAEDTAVYYCARNDYDVRSVGSGMDYWGQGTLVTVSS
VL: B1 VL
notes: Anti-Jagged2 antibody, human IgG1; also called parental antibody of antibody B-3
Question: Does B3 bind [13]?
Answer: Result: no binding

Question: Does B3 bind [14]?
Answer: Result: no binding

Question: What about the Kd [15] of the same binder?
Answer: The Kd was 1 nM.

Question: What about the koff [15] of the same binder?
Answer: The koff was 0.0026 s⁻¹.

Question: What about the kon [15] of the same binder?
Answer: The kon was 2.5e+06 M⁻¹ s⁻¹.

Question: What about the Kd [16] of the same binder?
Answer: The Kd was 1 nM.

Question: What about the koff [16] of the same binder?
Answer: The koff was 0.0026 s⁻¹.

Question: What about the kon [16] of the same binder?
Answer: Its kon is 2.5e+06 M⁻¹ s⁻¹.

B4: Antibody B-3 (antibody, human IgG1, V domains shown)
VH: B3 VH with S105F
VL: B1 VL with Y92F, T94A
notes: also called anti-Jagged2 antibody B-3; anti-Jag2 B-3
Question: Does B4 bind [17]?
Answer: Result: no binding

Question: Does B4 bind [18]?
Answer: Result: no binding

Question: What about the Kd [19] of the same binder?
Answer: Its Kd is 0.041 nM.

Question: And the koff [19]?
Answer: Its koff is 0.000188 s⁻¹.

Question: What about the kon [19] of the same binder?
Answer: The kon was 4.58e+06 M⁻¹ s⁻¹.

Question: And the Kd [20]?
Answer: The Kd was 0.0571 nM.

Question: And the koff [20]?
Answer: Its koff is 4.4e-05 s⁻¹.

Question: What about the kon [20] of the same binder?
Answer: The kon was 771000 M⁻¹ s⁻¹.

Question: What about the Kd [16] of the same binder?
Answer: The Kd was 0.3 nM.

Question: What about the koff [16] of the same binder?
Answer: The koff was 0.000175 s⁻¹.

Question: What about the kon [16] of the same binder?
Answer: Its kon is 580000 M⁻¹ s⁻¹.

Question: What about the Kd [21] of the same binder?
Answer: Its Kd is 349 nM.

Question: And the Kd [22]?
Answer: Its Kd is 72.3 nM.

B5: Antibody A-1 (antibody, human IgG1, kappa, V domains shown)
VH: B1 VH with W102L
VL: DIQMTQSPSSLSASVGDRVTITCRASQDVSTAVAWYQQKPGKAPKLLIYSASFLYSGVPSRFSGSGSGTDFTLTISSLQPEDFATYYCQQYYTTATTFGQGTKVEIKR
Question: Which Kd [23] does the source give for B5 here?
Answer: Its Kd is 0.799 nM.

B6: Antibody A-1 S101A (antibody, V domains shown)
VH: B1 VH with S101A, W102L
VL: B1 VL with S91Y, P95A, P96T
notes: Mutant of A-1 expressed in mammalian cells; also called A-1 G100, S101A
Question: Which results are given for B6?
Answer: Kd [23]: 4.62 nM; koff [23]: 0.000675 s⁻¹; kon [23]: 146000 M⁻¹ s⁻¹
